Experimental data published in article PMC10975490 (Toxins, 2024).

Tests used:
[1] = biological target: Protobothrops flavoviridis leucine-rich α2-glycoprotein (LRG) (Protobothrops flavoviridis); test: SPR; BIAcore X; P. flavoviridis LRG amine-coupled to a CM5 chip; Cyt c or PLA2 as analyte; 25 °C; 50 mM HEPES, 0.05% Tween 20, pH 7.5, NaCl to ionic strength 0.2; 10 μL/min; 1:1 Langmuir model with drifting baseline, global fit; apparent Kd
[2] = biological target: Protobothrops flavoviridis leucine-rich α2-glycoprotein (LRG) (Protobothrops flavoviridis); test: SDS-PAGE under reducing and non-reducing conditions
[3] = biological target: Gloydius brevicauda basic phospholipase A2 (Gloydius brevicauda); test: inhibition of enzyme activity; PLA2 activity measured fluorometrically with 10-Pyrene-PC as substrate at various concentrations of LRG; apparent inhibition constant (Ki app) by non-linear least-squares analysis of relative PLA2 activity
[4] = biological target: Naja kaouthia leucine-rich α2-glycoprotein (LRG) (Naja kaouthia); test: SDS-PAGE under reducing and non-reducing conditions
[5] = biological target: Laticauda semifasciata leucine-rich α2-glycoprotein (LRG) (Laticauda semifasciata); test: as above
[6] = biological target: the molecule itself; test: as above
[7] = biological target: T1, Protobothrops flavoviridis basic phospholipase A2 PL-X (Protobothrops flavoviridis, UniProt P06860 1-122); test: inhibition of enzyme activity; PLA2 activity measured fluorometrically with 10-Pyrene-PC as substrate at various concentrations of LRG; apparent inhibition constant (Ki app) by non-linear least-squares analysis of relative PLA2 activity; conditions: both partners purified
T1 construct: Group II basic phospholipase A2 PL-X from the venom of Protobothrops flavoviridis; also called P. flavoviridis PL-X
T1 sequence: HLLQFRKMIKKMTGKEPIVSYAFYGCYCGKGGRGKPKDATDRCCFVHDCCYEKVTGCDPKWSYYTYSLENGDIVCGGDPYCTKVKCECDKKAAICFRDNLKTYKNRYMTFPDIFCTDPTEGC

Chain of Gloydius brevicauda basic phospholipase A2 (Gloydius brevicauda) (O42187 17-138 limits assumed): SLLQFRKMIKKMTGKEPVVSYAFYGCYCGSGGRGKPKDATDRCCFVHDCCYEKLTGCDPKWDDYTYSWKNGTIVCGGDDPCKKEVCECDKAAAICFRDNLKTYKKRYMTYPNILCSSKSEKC

## Laticauda semifasciata cytochrome c (natural protein)
[1]
  Kd: 0.0149 nM

## Protobothrops flavoviridis leucine-rich α2-glycoprotein (LRG) (natural protein)
[2]
  stoichiometry N: 2

## Elaphe climacophora leucine-rich α2-glycoprotein (PLIβ) (from UniProt C0STK7 24-332) (natural protein)
[3]
  Ki: 11.1 nM

## Naja kaouthia leucine-rich α2-glycoprotein (LRG) (natural protein)
[4]
  stoichiometry N: 2
[3]
  Ki: 350 nM

## Laticauda semifasciata leucine-rich α2-glycoprotein (LRG) (natural protein)
[5]
  stoichiometry N: 2
[3]
  Ki: 1030 nM

B1: Elaphe quadrivirgata PLIβ (natural protein)
chain: VLYCPPDPAPENITEFVCNSPSLHEFPTGFPVRTKLISVEFTQVSSLGVEALQGLPNLQELHLSNNRLKTLLSGLFRNLPELHTLDLSTNLLEDLPPEIFTSTTSLTLLSISENRLAKLRLSWFETLKELRILSLDNNQLKEVPISCFDKLEKLTFLDLSSNRLHRLSPDMFSGLDNLERLSLENNPIRCIAPKSFHGRPKLSIISLKNCSLTNIITGVFQPLNHLVLLDLSDNELTMLDPPVAIPSANLSLDLTGNPWACNCRMDNLLTWVKEHKIDLYSKEEIVCAFPKSFKGEEATSLHRSQICPC
[6]
  stoichiometry N: 2

B2: Gloydius brevicauda leucine-rich α2-glycoprotein (PLIβ) (natural protein, UniProt O93233 24-331, looked up)
chain: VLYCPPTPAPENVTEFVCNSPSLHEFPTGFPARAKMISVEFTQVSSLGVEALQGLPNLQELHLSNNRLKTLPSGLFRNLPQLHTLDLSTNHLEDLPPEIFTNASSLILLPLSENQLAELHPSWFQTLGELRILGLDHNQVKEIPISCFDKLKKLTSLDLSFNLLRRLAPEMFSGLDNLEKLILESNPIQCIVGRTFHWHPKLTVLSLKNSSLTNIMGFFQPLEQLELLDLSDNELTTMEPPVYKTSANLSLDLSGNPWACDCRLDNLLTWVNEHNIHLYSKEEIVCASPKHFKGECATSLHKSQICPC
notes: PLIβ (snake LRG) of Gloydius brevicauda (Agkistrodon blomhoffii siniticus), from serum; also called G. brevicauda LRG; G. brevicauda PLIβ
[6]
  stoichiometry N: 2
[7]
  Ki: 26.1 nM
